In the experiment the target is PfCoronin^R100K/E107V-smHA (P. falciparum (Pikine isolate, SenP019.04)). Briefly: affinity purification with mass spectrometry.

“PfActin (from UniProt Q8I4X0 1-376) (natural protein)” registered a fold reduction of normalised abundance against PfCoronin^WT-smHA of 3 fold.

The values are drawn from article doi:10.1101/2023.12.22.572193.
